The source of these data is patent US20250011456A1, “ANTIBODIES AGAINST CD14 AND USES THEREOF” (Villanelle Life Science Inc, priority 2023, published 2025).

A word on the Kd: it is the equilibrium constant for the complex coming apart.

For the test, the target named is T1, recombinant human CD14 (B294801, histidine tagged) (Homo sapiens, UniProt P08571).
T1 construct: His; purchased Shanghai BaiYing Biotechnology Co., Ltd B294801 (Batch number 20200518A22)
T1 sequence (P08571 20-345): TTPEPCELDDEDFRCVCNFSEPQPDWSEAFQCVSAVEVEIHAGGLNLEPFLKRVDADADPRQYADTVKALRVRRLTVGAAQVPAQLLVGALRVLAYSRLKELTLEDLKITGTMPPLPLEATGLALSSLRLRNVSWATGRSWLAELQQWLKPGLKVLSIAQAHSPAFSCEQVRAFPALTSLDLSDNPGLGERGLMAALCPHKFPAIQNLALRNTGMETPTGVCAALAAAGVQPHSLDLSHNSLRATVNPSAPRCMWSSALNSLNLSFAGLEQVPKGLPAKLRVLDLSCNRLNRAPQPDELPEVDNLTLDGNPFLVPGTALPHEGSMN
As to the kind of experiment: Biacore 8K kinetic and affinity test of humanized antibodies (Example 8). It is filed as binding. As to conditions: for Kd / koff (1:1 binding) / kon (1:1 binding): Biacore 8K, analyte B294801 0.78125-25 nM, capture 1 μg/mL; for Kd: KD=koff/kon; for Change Factor (ratio of KD of the humanized to mouse antibody): relative to mouse antibody D6DD3D001. The protocol:
Experimental reagents and consumables included Protein A chip (Cytiva, 29127556). Main instruments and equipment included Biacore 8K (Cytiva), shaker (Taicang Huamei), ELISA system (Molecular Devices), centrifuge (Baiyang), ultrapure water system (Millipore), and thermostatic incubator (BLUE PARD).
The antigen used for the binding affinity measurements is B294801. This antigen is a recombinant human CD14 antigen that is histidine tagged and has a molecular weight of 36 kDa. B294801 was purchased from Shanghai BaiYing Biotechnology Co., Ltd (name: Recombinant Human CD14/His Protein; Batch number 20200518A22). D6DD3D001 is a mouse antibody, and D6DD3D002-D6DD3D0016 are humanized antibodies. The antibodies are recombinant, human (hFc Tag). Selected parameters of the experimental samples are shown in Table 8-1, with MW referring to molecular weight in kiloDaltons (kDa).
The Biacore 8K platform was used to test the kinetic and affinity properties of the antibody. The operation was carried out according to the system instructions and indications.
The equilibrium dissociation constant (KD) reflects the affinity of the antibody to the target, with a smaller value indicating a stronger affinity. KD (in units of molarity) is determined by the ratio of the dissociation rate constant (koff) and the association rate constant (kon), that is, KD=Koff/kon.
15 humanized antibodies (numbered D6DD3D002-D6DD3D0016) and 1 mouse antibody (number D6DD3D001) were tested. For the experiments, the analyte solution comprises the B294801 antigen with an analyte concentration of 0.78125 nM, 1.5625 nM, 3.125 nM, 6.25 nM, 12.5 nM, and 25 nM. The capture concentration was 1 μg/mL. In Table 8-3, the change factor is the ratio of the equilibrium dissociation constant KD of the humanized to mouse antibody, and reflects the change in affinity after humanization.
A general note: SPR reads the build-up and loss of mass on a sensor chip optically.

B1: D6DD3D009: humanized anti-CD14 antibody; VH SEQ ID NO: 33, VL SEQ ID NO: 35 (antibody, V domains shown)
VH: QLQLQESGPGLVKPSETLSLTCTVSGGSISSDSAWNWIRQPPGKGLEWIGYISYSGSTSYNPSLKSRVTISRDTSKNQFSLKLSSVTAADTAVYYCVRGLRFAYWGQGTLVTVSS
VL: DIVLTQSPDSLAVSLGERATINCRASESVDSYVNSFLHWYQQKPGQPPKLLIYRASNLQSGVPDRFSGSGSRTDFTLTISSLQAEDVAVYYCQQSNEDPYTFGQGTKLEIK
For B1, the Kd was found to be 1.89 nM, the “koff (1:1 binding)” value was 0.00379 s⁻¹, the “kon (1:1 binding)” value worked out at 2.01e+06 M⁻¹ s⁻¹ and the “Change Factor (ratio of KD of the humanized to mouse antibody)” value was found to be 3.90.

B2: D6DD3D013: humanized anti-CD14 antibody; VH SEQ ID NO: 49, VL SEQ ID NO: 51 (antibody, V domains shown)
VH: QVQLQESGPGLVKPSETLSLTCTVSGGSISSDSAWNWIRQPPGKGLEWIGYISYSGSTSYNPSLKSRVTISRDTSKNQFSLKLSSVTAADTAVYYCVRGLRFAYWGQGTLVTVSS
VL: DIQLTQSPSSLSASVGDRVTITCRASESVDSYVNSFLHWYQQKPGKAPKLLIYRASNLQSGVPSRFSGSGSRTDFTLTISSLQPEDVATYYCQQSNEDPYTFGQGTKLEIK
Turning to B2, the equilibrium dissociation constant (Kd) was found to be 1.61 nM, the “koff (1:1 binding)” value worked out at 0.00282 s⁻¹, the “kon (1:1 binding)” value was 1.76e+06 M⁻¹ s⁻¹ and the “Change Factor (ratio of KD of the humanized to mouse antibody)” value came to 3.32.

B3: D6DD3D016: humanized anti-CD14 antibody; VH SEQ ID NO: 61, VL SEQ ID NO: 63 (antibody, V domains shown)
VH: QVQLQESGPGLVKPSQTLSLTCTVSGYSITSDSAWNWIRQPPGKGLEWIGYISYSGSTSYNPSLKSRVTISRDTSKNQFSLKLSSVTAADTAVYYCVRGLRFAYWGQGTLVTVSS
VL: DIQLTQSPSSLSASVGDRVTITCRASESVDSYVNSFLHWYQQKPGKAPKLLIYRASNLQSGVPSRFSGSGSRTDFTLTISSLQPEDVATYYCQQSNEDPYTFGQGTKLEIK
As to B3, the dissociation constant (Kd) turned out to be 0.672 nM, the “koff (1:1 binding)” value turned out to be 0.000904 s⁻¹, the “kon (1:1 binding)” value turned out to be 1.35e+06 M⁻¹ s⁻¹ and the “Change Factor (ratio of KD of the humanized to mouse antibody)” value is on record as 1.39.

B4: D6DD3D002: humanized anti-CD14 antibody; VH SEQ ID NO: 5, VL SEQ ID NO: 7 (antibody, V domains shown)
VH: QVQLQESGPGLVKPSQTLSLTCTVSGGSISSDSAWNWIRQHPGKGLEWIGYISYSGSTSYNPSLKSRVTISRDTSKNQFSLKLSSVTAADTAVYYCVRGLRFAYWGQGTLVTVSS
VL: EIVLTQSPATLSLSPGERATLSCRASESVDSYVNSFLHWYQQKPGQAPRLLIYRASNLQSGIPARFSGSGSRTDFTLTISSLEPEDVAVYYCQQSNEDPYTFGQGTKLEIK
With B4, the “koff (1:1 binding)” value is 0.00292 s⁻¹ and the “kon (1:1 binding)” value was 1.69e+06 M⁻¹ s⁻¹.

B5: D6DD3D014: humanized anti-CD14 antibody; VH SEQ ID NO: 53, VL SEQ ID NO: 55 (antibody, V domains shown)
VH: QLQLQESGPGLVKPSETLSLTCTVSGGSISSDSAWNWIRQPPGKGLEWIGYISYSGSTSYNPSLKSRVTISRDTSKNQFSLKLSSVTAADTAVYYCVRGLRFAYWGQGTLVTVSS
VL: DIQLTQSPSSLSASVGDRVTITCRASESVDSYVNSFLHWYQQKPGKAPKLLIYRASNLQSGVPSRFSGSGSRTDFTLTISSLQPEDVATYYCQQSNEDPYTFGQGTKLEIK
B5: the Kd is 1.8 nM, the “koff (1:1 binding)” value amounted to 0.00318 s⁻¹, the “kon (1:1 binding)” value was found to be 1.77e+06 M⁻¹ s⁻¹ and the “Change Factor (ratio of KD of the humanized to mouse antibody)” value is recorded as 3.71.

B6: D6DD3D003: humanized anti-CD14 antibody; VH SEQ ID NO: 9, VL SEQ ID NO: 11 (antibody, V domains shown)
VH: QVQLQESGPGLVKPSETLSLTCTVSGGSISSDSAWNWIRQPPGKGLEWIGYISYSGSTSYNPSLKSRVTISRDTSKNQFSLKLSSVTAADTAVYYCVRGLRFAYWGQGTLVTVSS
VL: EIVLTQSPATLSLSPGERATLSCRASESVDSYVNSFLHWYQQKPGQAPRLLIYRASNLQSGIPARFSGSGSRTDFTLTISSLEPEDVAVYYCQQSNEDPYTFGQGTKLEIK
Consider B6, for which the equilibrium dissociation constant (Kd) is 1.62 nM, the “koff (1:1 binding)” value was found to be 0.00295 s⁻¹, the “kon (1:1 binding)” value was 1.82e+06 M⁻¹ s⁻¹ and the “Change Factor (ratio of KD of the humanized to mouse antibody)” value is 3.34.

B7: D6DD3D012: humanized anti-CD14 antibody; VH SEQ ID NO: 45, VL SEQ ID NO: 47 (antibody, V domains shown)
VH: QVQLQESGPGLVKPSQTLSLTCTVSGGSISSDSAWNWIRQHPGKGLEWIGYISYSGSTSYNPSLKSRVTISRDTSKNQFSLKLSSVTAADTAVYYCVRGLRFAYWGQGTLVTVSS
VL: DIQLTQSPSSLSASVGDRVTITCRASESVDSYVNSFLHWYQQKPGKAPKLLIYRASNLQSGVPSRFSGSGSRTDFTLTISSLQPEDVATYYCQQSNEDPYTFGQGTKLEIK
On to B7, for which the “koff (1:1 binding)” value stood at 0.00293 s⁻¹ and the “kon (1:1 binding)” value was determined as 1.64e+06 M⁻¹ s⁻¹.

B8: D6DD3D004: humanized anti-CD14 antibody; VH SEQ ID NO: 13, VL SEQ ID NO: 15 (antibody, V domains shown)
VH: QLQLQESGPGLVKPSETLSLTCTVSGGSISSDSAWNWIRQPPGKGLEWIGYISYSGSTSYNPSLKSRVTISRDTSKNQFSLKLSSVTAADTAVYYCVRGLRFAYWGQGTLVTVSS
VL: EIVLTQSPATLSLSPGERATLSCRASESVDSYVNSFLHWYQQKPGQAPRLLIYRASNLQSGIPARFSGSGSRTDFTLTISSLEPEDVAVYYCQQSNEDPYTFGQGTKLEIK
For the molecule B8, the Kd turned out to be 1.99 nM, the “koff (1:1 binding)” value was 0.00326 s⁻¹, the “kon (1:1 binding)” value amounted to 1.64e+06 M⁻¹ s⁻¹ and the “Change Factor (ratio of KD of the humanized to mouse antibody)” value worked out at 4.10.

B9: D6DD3D011: humanized anti-CD14 antibody; VH SEQ ID NO: 41, VL SEQ ID NO: 43 (antibody, V domains shown)
VH: QVQLQESGPGLVKPSQTLSLTCTVSGYSITSDSAWNWIRQPPGKGLEWIGYISYSGSTSYNPSLKSRVTISRDTSKNQFSLKLSSVTAADTAVYYCVRGLRFAYWGQGTLVTVSS
VL: DIVLTQSPDSLAVSLGERATINCRASESVDSYVNSFLHWYQQKPGQPPKLLIYRASNLQSGVPDRFSGSGSRTDFTLTISSLQAEDVAVYYCQQSNEDPYTFGQGTKLEIK
For B9, the Kd was 0.639 nM, the “koff (1:1 binding)” value was 0.00109 s⁻¹, the “kon (1:1 binding)” value was 1.71e+06 M⁻¹ s⁻¹ and the “Change Factor (ratio of KD of the humanized to mouse antibody)” value is 1.32.
